For this series the following is noted: Hordeum vulgare; pH 6.3; 25 °C; GdnHCl; Fluorescence; MES 450 mM; reversible: yes; whole UniProt chain shown.

B1: Subtilisin-chymotrypsin inhibitor-2A wild type, P01053 (protein)
chain: MSSVEKKPEGVNTGAGDRHNLKTEWPELVGKSVEEAKKVILQDKPEAQIIVLPVGTIVTMEYRIDRVRLFVDKLDNIAQVPRVG
For the protein B1, the denaturant m value came to 1.89 kcal/mol/M, the “denaturant midpoint (higher = more stable)” value stood at 3.99 M and the unfolding free energy stood at 7.53 kcal/mol.
